T1: human CD81 on CD81-expressing cells (Jurkat E6.1, human PBMC, Ramos) (human, UniProt P60033 1-236)
T1 sequence: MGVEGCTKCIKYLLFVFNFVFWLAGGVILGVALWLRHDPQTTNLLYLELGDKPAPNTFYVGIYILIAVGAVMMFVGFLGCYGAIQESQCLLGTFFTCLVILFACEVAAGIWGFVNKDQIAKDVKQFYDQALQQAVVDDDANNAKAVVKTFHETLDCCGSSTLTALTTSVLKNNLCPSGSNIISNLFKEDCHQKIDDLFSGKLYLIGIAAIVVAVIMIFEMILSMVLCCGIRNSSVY

T2: human CD81 mutant V169A (human, UniProt P60033 1-236, limits assumed)
T2 construct: as m30; not shown: C-terminal V5 and 6xHis tags
T2 sequence: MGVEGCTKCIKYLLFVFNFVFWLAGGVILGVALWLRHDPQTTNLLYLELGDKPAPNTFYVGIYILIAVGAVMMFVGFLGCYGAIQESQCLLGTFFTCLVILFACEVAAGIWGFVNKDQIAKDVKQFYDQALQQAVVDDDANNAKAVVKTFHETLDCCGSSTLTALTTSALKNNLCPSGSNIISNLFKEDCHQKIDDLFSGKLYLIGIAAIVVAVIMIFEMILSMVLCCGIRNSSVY

T3: human CD81 mutant N172A (human, UniProt P60033 1-236, limits assumed)
T3 construct: as m30; not shown: C-terminal V5 and 6xHis tags
T3 sequence: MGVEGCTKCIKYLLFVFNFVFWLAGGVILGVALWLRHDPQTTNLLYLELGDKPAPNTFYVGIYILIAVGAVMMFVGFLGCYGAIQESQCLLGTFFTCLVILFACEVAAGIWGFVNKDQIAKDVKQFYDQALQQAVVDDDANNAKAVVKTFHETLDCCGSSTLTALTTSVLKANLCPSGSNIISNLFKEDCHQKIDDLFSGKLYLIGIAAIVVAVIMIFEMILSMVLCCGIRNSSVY


Tests used:
[1] = molecular target: T1, human CD81 on CD81-expressing cells …; experiment: cell-based or functional assay
[2] = molecular target: T2, human CD81 mutant V169A; experiment: ELISA
[3] = molecular target: T3, human CD81 mutant N172A; experiment: ELISA
[4] = molecular target: T1, human CD81 on CD81-expressing cells …; experiment: FMAT on CD81-expressing and non-expressing cells
Source text: A complete human antibody library n-CoDeR (Nature Biotechnol. 18: 852-856, 2000; WO98/32845) was screened for specific binding with human CD81, using human CD81 protein and human CD9 protein having a homology with CD81, or human CD81-expressing and -non-expressing cells to obtain human antibody fragments (scFv) specifically binding with human CD81. First, phages bound to biotinylated CD81 protein in the presence of competitive CD9 protein were recovered using streptoavidin-labeled magnetic beads. Unbound phages were washed out and the bound phages were eluted by trypsin treatment. Panning was carried out three times, and the selected phage library was expressed as an antibody fragment in E. coli. […] FMAT is performed by adding antibody fragments to the cells immobilized on the wells of 384-well culture plate, and detecting its binding using a fluorescent-labeled anti-scFv antibody. As a result of the screening, two human CD81-specific human antibody fragments were selected. The nucleotide sequences (scFv-002-A07: SEQ ID NO:33, scFv-005-001: SEQ ID NO:35) and the deduced amino acid sequences (scFv-002-A07: SEQ ID NO:34, scFv-005-001: SEQ ID NO:36) of these fragments were determined by sequencing.

Row | Jurkat chemotaxis (% of control IgG4) at 0.001 µg/mL [1] [%] | Jurkat chemotaxis (% of control IgG4) at 0.01 µg/mL [1] [%] | Jurkat chemotaxis (% of control IgG4) at 0.1 µg/mL [1] [%] | Jurkat chemotaxis (% of control IgG4) at 1 µg/mL [1] [%] | Jurkat chemotaxis (% of control IgG4) at 10 µg/mL [1] [%] | relative binding affinity [2] [%] | relative binding affinity [3] [%] | binding result [4] | Binder
1 | 104 | 93 | 15 | 3 | 3 | < 20 | < 20 | – | 003-A10 (antibody, human IgG4 S228P, lambda, V domains shown, IgG4 S228P) VH: EVQLLESGGGLVQPGGSLRLSCAASGFTFSSNYMSWVRQAPGKGLEWVSYISSSSTYTDYADSVKGRFTISRDNSKNTLYLQMNSLRAEDTAVYYCARYSYGRDTFDYWGQGTLVTVSS VL: QSVLTQPFSASGTPGQRVTISCTGSTSNIGAGYDTHWYQQLPGTAPKLLIYGNSNRPSGVPDRFSGSKSGTSASLAISGLRSEDEADYYCQSYDTNLSVWVFGGGTKLTVLG
2 | – | – | – | – | – | – | – | binds | scFv-002-A07 (scFv, antibody fragment from the n-CoDeR library, expressed in E. coli) scFv: EVQLLESGGGLVQPGGSLRLSCAASGFTFSSNYMSWVRQAPGKGLEWVSYISSSSTYTDYADSVKGRFTISRDNSKNTLYLQMNSLRAEDTAVYYCARYSYGRDNFDYWGQGTLVTVSSGGGGSGGGGSGGGGSQSVLTQPPSASGTPGQRVTISCTGSTSNIGAGYDTHWYQQLPGTAPKLLIYGNSNRPSGVPDRFSGSKSGTSASLAISGLRSEDEADYYCQSYDTNLSVWVFGGGTKLTVLGEQKLISEEDLSGSAAAHHHHHH
